T1: Lon4E (Caulobacter crescentus, UniProt P0CAW0 1-799, K301E;K303E;K305E;K306E)
T1 sequence: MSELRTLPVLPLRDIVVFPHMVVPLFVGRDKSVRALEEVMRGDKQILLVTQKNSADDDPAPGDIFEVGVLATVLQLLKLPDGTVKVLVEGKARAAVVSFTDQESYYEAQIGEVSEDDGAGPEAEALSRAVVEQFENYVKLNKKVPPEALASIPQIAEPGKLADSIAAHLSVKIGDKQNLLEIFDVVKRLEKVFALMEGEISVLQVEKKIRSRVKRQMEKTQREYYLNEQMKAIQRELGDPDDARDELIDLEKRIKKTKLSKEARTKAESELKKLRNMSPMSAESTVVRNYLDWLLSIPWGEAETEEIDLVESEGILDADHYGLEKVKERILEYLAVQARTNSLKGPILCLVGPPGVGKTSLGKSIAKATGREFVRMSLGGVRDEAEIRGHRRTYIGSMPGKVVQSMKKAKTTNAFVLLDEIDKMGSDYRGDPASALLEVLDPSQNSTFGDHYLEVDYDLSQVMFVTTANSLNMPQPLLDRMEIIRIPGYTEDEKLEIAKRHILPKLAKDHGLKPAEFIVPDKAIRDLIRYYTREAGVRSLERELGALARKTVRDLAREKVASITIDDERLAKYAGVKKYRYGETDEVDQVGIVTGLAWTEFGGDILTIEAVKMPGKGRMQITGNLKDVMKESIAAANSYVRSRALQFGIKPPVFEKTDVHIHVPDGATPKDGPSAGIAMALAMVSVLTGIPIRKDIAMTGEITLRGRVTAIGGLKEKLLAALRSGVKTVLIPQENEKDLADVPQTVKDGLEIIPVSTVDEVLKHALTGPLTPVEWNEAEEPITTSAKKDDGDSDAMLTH

T2: Lon4A (Caulobacter crescentus, UniProt P0CAW0 1-799, K301A;K303A;K305A;K306A)
T2 sequence: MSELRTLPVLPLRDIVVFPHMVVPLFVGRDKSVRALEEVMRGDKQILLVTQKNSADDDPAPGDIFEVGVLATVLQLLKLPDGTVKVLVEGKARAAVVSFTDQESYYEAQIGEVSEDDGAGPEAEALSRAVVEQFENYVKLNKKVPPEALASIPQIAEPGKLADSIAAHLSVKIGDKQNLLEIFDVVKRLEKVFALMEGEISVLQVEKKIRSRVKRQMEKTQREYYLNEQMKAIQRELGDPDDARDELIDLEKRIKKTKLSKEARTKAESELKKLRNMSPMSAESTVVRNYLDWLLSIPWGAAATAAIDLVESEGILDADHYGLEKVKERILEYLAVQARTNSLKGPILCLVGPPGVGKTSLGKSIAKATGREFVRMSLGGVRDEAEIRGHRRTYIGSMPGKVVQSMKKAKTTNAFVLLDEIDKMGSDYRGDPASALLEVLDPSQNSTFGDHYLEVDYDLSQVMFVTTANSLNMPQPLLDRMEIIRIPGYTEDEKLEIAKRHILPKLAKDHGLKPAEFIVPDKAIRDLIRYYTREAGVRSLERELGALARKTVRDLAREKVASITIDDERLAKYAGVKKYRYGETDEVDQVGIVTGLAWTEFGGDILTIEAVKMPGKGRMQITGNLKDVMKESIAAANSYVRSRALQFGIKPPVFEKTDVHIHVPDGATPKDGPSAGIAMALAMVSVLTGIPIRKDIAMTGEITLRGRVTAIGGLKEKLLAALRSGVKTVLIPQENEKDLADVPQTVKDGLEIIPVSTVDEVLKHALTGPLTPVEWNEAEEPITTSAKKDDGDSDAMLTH

T3: Lon (wild type) (Caulobacter crescentus, UniProt P0CAW0 1-799)
T3 sequence: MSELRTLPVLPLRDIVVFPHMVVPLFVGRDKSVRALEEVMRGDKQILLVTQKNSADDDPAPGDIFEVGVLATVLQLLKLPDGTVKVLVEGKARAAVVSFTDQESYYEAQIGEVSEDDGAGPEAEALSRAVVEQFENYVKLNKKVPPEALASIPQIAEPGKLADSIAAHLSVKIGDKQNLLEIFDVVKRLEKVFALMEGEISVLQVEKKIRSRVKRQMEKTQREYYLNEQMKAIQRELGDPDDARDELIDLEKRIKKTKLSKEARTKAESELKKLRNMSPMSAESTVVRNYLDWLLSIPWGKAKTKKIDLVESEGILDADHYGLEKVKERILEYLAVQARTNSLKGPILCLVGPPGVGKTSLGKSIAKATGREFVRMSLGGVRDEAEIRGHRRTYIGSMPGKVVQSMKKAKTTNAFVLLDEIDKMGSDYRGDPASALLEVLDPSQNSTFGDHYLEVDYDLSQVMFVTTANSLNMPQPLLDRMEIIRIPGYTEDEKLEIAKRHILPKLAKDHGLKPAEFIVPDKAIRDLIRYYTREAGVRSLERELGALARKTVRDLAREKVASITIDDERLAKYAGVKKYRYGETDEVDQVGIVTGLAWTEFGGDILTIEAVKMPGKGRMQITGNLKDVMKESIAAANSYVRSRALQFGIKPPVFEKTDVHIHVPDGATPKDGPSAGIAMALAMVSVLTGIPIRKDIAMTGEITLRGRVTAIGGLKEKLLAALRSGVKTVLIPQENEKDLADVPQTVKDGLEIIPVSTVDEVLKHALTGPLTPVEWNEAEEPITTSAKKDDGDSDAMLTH


What was measured:
Lon4E = molecular target: T1, Lon4E; assay: fluorescence polarization; 0.1 uM Lon4E, 25 nM FAM-ssDNA; FP: 25 mM HEPES pH 7.5, 10 mM MgCl2, 100 mM KCl, 0.05% Tween-20, 30 C, 0.1 uM Lon (hexamer), 25 nM DNA; mass photometry in TK buffer, 200 nM Lon; settings: protein: recombinant; chain copies: 6; label: FAM (printed at 5' side)
Lon4A = molecular target: T2, Lon4A; assay: fluorescence polarization; 0.1 uM Lon4A, 25 nM FAM-ssDNA; FP: 25 mM HEPES pH 7.5, 10 mM MgCl2, 100 mM KCl, 0.05% Tween-20, 30 C, 0.1 uM Lon (hexamer), 25 nM DNA; mass photometry in TK buffer, 200 nM Lon; settings: protein: recombinant; chain copies: 6; label: FAM (printed at 5' side)
Lon (wild type) = molecular target: T3, Lon (wild type); assay: mass photometry; 200 nM Lon monomer; shift to HMW, median 592 kDa vs 515 kDa, consistent with one ssDNA per protomer; FP: 25 mM HEPES pH 7.5, 10 mM MgCl2, 100 mM KCl, 0.05% Tween-20, 30 C, 0.1 uM Lon (hexamer), 25 nM DNA; mass photometry in TK buffer, 200 nM Lon; settings: protein: recombinant; chain copies: 6

Binder	binding result (Lon4E)	binding result (Lon4A)	binding result (Lon (wild type))
AACGGATGATCCACAGGAGAGTCTGGCGCAGGGCGAGAG (ssDNA) [FAM-ssDNA (G1Box top strand)]	no binding	no binding	
TCGATTCTCGAGTTAGTCGTCTTCTGGTGCCGGAAA (ssDNA) [OPC698-Stim]			binds
